Source: US20180289832A1 (MAGENTA THERAPEUTICS, published 2018)

Assays:
[1] = molecular target: T1, human CD137 (hCD137) stably over-expressed on Jurkat cells (human, UniProt Q07011 24-255); assay: flow cytometry on Jurkat cells over-expressing hCD137; antibody titration 4 h at 4 C, anti-mouse AF488 secondary, geometric MFI
T1 construct: also called 4-1BB; TNFRSF9
Description: (§1) Jurkat cells (i.e., an immortalized human T lymphocyte cell line) characterized by stable, over-expression of hCD137 were plated at 20,000 cells/well and stained with a titration of primary murine anti-CD137 antibody BBK2 (BBK2-mIgG1) for 4 hours at 4° C. Secondary anti-mouse AF488 stain, at a constant amount, was added for 30 minutes at 4° C. After washing, plates were run on a flow cytometer and binding of BBK2-mIgG1 (and the negative control, i.e., mIgG1) was determined based on geometric mean fluorescence intensity in the AF488 channel.

[2] = molecular target: T1, human CD137 (hCD137) stably …; assay: flow cytometry on Jurkat cells stably over-expressing hCD137; titration of the primary antibody 4 h at 4 °C, secondary anti-mouse AF488, gMFI
Description: as §1

T1 sequence (Q07011 24-255 limits assumed): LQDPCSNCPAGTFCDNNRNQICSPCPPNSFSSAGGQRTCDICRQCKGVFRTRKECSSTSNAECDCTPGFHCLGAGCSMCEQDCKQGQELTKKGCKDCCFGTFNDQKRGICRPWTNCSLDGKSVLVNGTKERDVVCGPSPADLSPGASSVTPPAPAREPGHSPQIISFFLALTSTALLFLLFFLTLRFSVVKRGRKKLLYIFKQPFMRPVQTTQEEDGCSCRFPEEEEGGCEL

B1: murine anti-CD137 antibody BBK2 (BBK2-mIgG1) (antibody, V domains shown)
VH: QVQLQQPGAELVRPGASVKLSCKASGYTFTSYWINWVKQRPGQGLEWIGNIYPSDSYTNYNQKFKDKATLTVDKSSNTVYMQLNSPTSEDSAVYYCTRNGVEGYPHYYAMEYWGQGTSVTVSS
VL: DIQMTQTTSALSASLGDRVTIGCRASQDLSNHLYWYQQKPDGTVKLLIYYTSRLHSGVPSRFSGSGSGTDYSLTIRNLEQEDVATYFCQQGYTLPYTFGGGTKLEIK
notes: Mouse monoclonal IgG1, kappa (Thermo Fisher); also called BBK-mIgG1; murine BBK2
[1]
  EC50: 35 µM
[2]
  EC50: 0.035 nM
